Data from IntAct's records for PubMed 11880648.

B1: RNA polymerase sigma factor SigA (Mycobacterium tuberculosis (strain ATCC 25618 / P9WGI1 (parent)
chain: MAATKASTATDEPVKRTATKSPAASASGAKTGAKRTAAKSASGSPPAKRATKPAARSVKPASAPQDTTTSTIPKRKTRAAAKSAAAKAPSARGHATKPRAPKDAQHEAATDPEDALDSVEELDAEPDLDVEPGEDLDLDAADLNLDDLEDDVAPDADDDLDSGDDEDHEDLEAEAAVAPGQTADDDEEIAEPTEKDKASGDFVWDEDESEALRQARKDAELTASADSVRAYLKQIGKVALLNAEEEVELAKRIEAGLYATQLMTELSERGEKLPAAQRRDMMWICRDGDRAKNHLLEANLRLVVSLAKRYTGRGMAFLDLIQEGNLGLIRAVEKFDYTKGYKFSTYATWWIRQAITRAMADQARTIRIPVHMVEVINKLGRIQRELLQDLGREPTPEELAKEMDITPEKVLEIQQYAREPISLDQTIGDEGDSQLGDFIEDSEAVVAVDAVSFTLLQDQLQSVLDTLSEREAGVVRLRFGLTDGQPRTLDEIGQVYGVTRERIRQIESKTMSKLRHPSRSQVLRDYLD
partner: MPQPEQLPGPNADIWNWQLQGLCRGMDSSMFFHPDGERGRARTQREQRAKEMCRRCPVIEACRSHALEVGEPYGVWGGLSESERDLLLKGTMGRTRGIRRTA

Variants of: B1
Conditions: with whib3_myctu whiB3, P9WF41

Q: Which “effect of a mutation on the interaction” value does the source give for R515H here?
A: The value was “disrupting interaction strength”.
